Measurements: publication PMC8347774, “Construction of Fluorescent Immunosensor Quenchbody to Detect His-Tagged Recombinant Proteins Produced in Bioprocess” (Sensors (Basel, Switzerland), 2021)
Positions count from the first letter of the chain named. The star is where a group is joined. Biotin = O=C1N[C@H]2[C@H](CS[C@H]2CCCCC(=O)*)N1

T1: His6 peptide (antigen of the fluorescence assays) (synthetic peptide)
T1 construct: His6; The materials name only the biotinylated His6 peptide as synthesised; it may be the same peptide as m17
T1 chain: HHHHHH

T2: biotinylated His6 peptide (bio-EGGGSHHHHHH-COOH) (synthetic peptide, SMILES …)
T2 construct: spacer EGGGS and His6; Held on streptavidin biosensors by its biotin; source: synthetic peptide (PSSM-8 peptide synthesizer)
T2 chain: Biotin-EGGGSHHHHHH-OH

B1: ATTO520-C2 maleimide double-labeled WW Fab 3D5 Q-body (Fab, V domains shown)
VH: QVQLQQSGPEDVKPGASVKISCKASGYTFTDWWMNWVKQSPGKGLEWIGDINPNNGGTSYNQKFKGRATLTVDKSSSTAYMELRSLTSEDSSVYYCESQSGAYWGQGTTVTVSA
VL: DILMTQTPSSLPVSLGDQASISCRSSQSIVHSNGNTYLEWYLQKPGQSPKLLIYKVSNRFSGVPDRFSGSGSGTDFTLKISRVEAEDLGVYYCFQGSHVPFTFGSGTKLEIK
notes: VH of antibody 3D5, as the VH of m7 with the stated changes; numbers count on: Kabat numbering of the heavy chain; CH1 of the vector pUQ2, as in m7; VL of antibody 3D5, as the light chain of m7; CL of the vector pUQ2, as the light chain of m7; m8 labelled with two ATTO520 dyes; also called WW ATTO520; WW-ATTO520; source: E. coli SHuffle T7 Express with pGro7, purified (Talon IMAC), labelled, …
B2: 5-TAMRA C6 maleimide double-labeled WW Fab 3D5 Q-body (Fab, V domains shown)
VH: B1 VH
VL: B1 VL
notes: VH of antibody 3D5, as the VH of m7 with the stated changes; numbers count on: Kabat numbering of the heavy chain; CH1 of the vector pUQ2, as in m7; VL of antibody 3D5, as the light chain of m7; CL of the vector pUQ2, as the light chain of m7; m8 labelled with two dyes; also called WW TAMRA; source: E. coli SHuffle T7 Express with pGro7, purified (Talon IMAC), labelled, purified (anti-FLAG M2 …)
B3: ATTO520-C2 maleimide double-labeled YW Fab 3D5 Q-body (Fab, V domains shown)
VH: B1 VH with W32Y
VL: B1 VL
notes: VH of antibody 3D5, as the VH of m7 with the stated change; numbers count on: Kabat numbering of the heavy chain; CH1 of the vector pUQ2, as in m7; VL of antibody 3D5, as the light chain of m7; CL of the vector pUQ2, as the light chain of m7; m9 labelled with two ATTO520 dyes; also called YW ATTO520; YW-ATTO520; source: E. coli SHuffle T7 Express with pGro7, purified (Talon IMAC), labelled, …
B4: 5-TAMRA C6 maleimide double-labeled YW Fab 3D5 Q-body (Fab, V domains shown)
VH: B1 VH with W32Y
VL: B1 VL
notes: VH of antibody 3D5, as the VH of m7 with the stated change; numbers count on: Kabat numbering of the heavy chain; CH1 of the vector pUQ2, as in m7; VL of antibody 3D5, as the light chain of m7; CL of the vector pUQ2, as the light chain of m7; m9 labelled with two dyes; also called YW TAMRA; source: E. coli SHuffle T7 Express with pGro7, purified (Talon IMAC), labelled, purified (anti-FLAG M2 …)
B5: ATTO520-C2 maleimide double-labeled wild-type Fab 3D5 Q-body (Fab, V domains shown)
VH: B1 VH with W32Y, W33Y
VL: B1 VL
notes: VH of antibody 3D5, as in m7; CH1 of the vector pUQ2, as in m7; VL of antibody 3D5, as the light chain of m7; CL of the vector pUQ2, as the light chain of m7; m7 labelled with two ATTO520 dyes; also called Wild-type ATTO520; source: E. coli SHuffle T7 Express with pGro7, purified (Talon IMAC), labelled, purified (anti-FLAG M2 beads, G-25); not shown: Cys-tag, N-terminal, kept; His6, C-terminal, …
B6: 5-TAMRA C6 maleimide double-labeled wild-type Fab 3D5 Q-body (Fab, V domains shown)
VH: B1 VH with W32Y, W33Y
VL: B1 VL
notes: VH of antibody 3D5, as in m7; CH1 of the vector pUQ2, as in m7; VL of antibody 3D5, as the light chain of m7; CL of the vector pUQ2, as the light chain of m7; m7 labelled with two dyes; also called Wild-type TAMRA; source: E. coli SHuffle T7 Express with pGro7, purified (Talon IMAC), labelled, purified (anti-FLAG M2 beads, G-25); not shown: Cys-tag, N-terminal, kept; His6, C-terminal, kept; myc, …
B7: anti-His scFv 3D5 WW variant (scFv, V domains shown)
VH: B1 VH
VL: B1 VL
B8: anti-His Fab 3D5 WW variant (Fab, V domains shown)
VH: B1 VH
VL: B1 VL
B9: anti-His Fab 3D5 YW variant (Fab, V domains shown)
VH: B1 VH with W32Y
VL: B1 VL
notes: VH of antibody 3D5, as the VH of m7 with the stated change; numbers count on: Kabat numbering of the heavy chain; CH1 of the vector pUQ2, as in m7; VL of antibody 3D5, as the light chain of m7; CL of the vector pUQ2, as the light chain of m7; YW read as Tyr kept at 32H and Trp at 33H; source: E. coli SHuffle T7 Express with pGro7, purified (Talon IMAC); not shown: Cys-tag, N-terminal, kept; His6, …
B10: anti-His Fab 3D5 (wild-type) (Fab, V domains shown)
VH: B1 VH with W32Y, W33Y
VL: B1 VL
notes: VH of antibody 3D5; numbers count on: Kabat numbering of the heavy chain; CH1 of the vector pUQ2 (Fd = VH-CH1); VL of antibody 3D5; CL of the vector pUQ2 (Lc = VL-CL); Linker-less pUQ2 (3D5): the (GGGS)4 linker between Cys-tag and VH was removed; His6 is followed by myc on the heavy chain; also called wild-type Fab; source: E. coli SHuffle T7 Express with pGro7, purified (Talon IMAC); not shown: …
B11: 5-TAMRA C6 maleimide-labeled wild-type scFv 3D5 Q-body (scFv, V domains shown)
VH: B1 VH with W32Y, W33Y
VL: B1 VL
notes: VH of antibody 3D5, as in m1; linker between VH and VL, as in m1; VL of antibody 3D5, as in m1; m1 labelled with one dye; also called wild-type scFv Q-body; source: E. coli SHuffle T7 Express with pGro7, purified (Talon IMAC), labelled, purified (anti-FLAG M2 beads, G-25); not shown: Cys-tag, N-terminal, kept; His6, C-terminal, kept; FLAG, C-terminal, kept
B12: anti-His scFv 3D5 (wild-type) (scFv, V domains shown)
VH: B1 VH with W32Y, W33Y
VL: B1 VL
notes: VH of antibody 3D5 (anti-C-terminal His tag); numbers count on: Kabat numbering of the heavy chain; linker between VH and VL of the VH-VL type scFv (synthesised gene in pEX-K4J2-1KTR); VL of antibody 3D5; VH-VL order, vector pSQ (3D5); also called wild-type scFv; source: E. coli SHuffle T7 Express with pGro7, purified (Talon IMAC); not shown: Cys-tag, N-terminal, kept; His6, C-terminal, kept; …

The binders below were run against anti-SARS-CoV-2 VHH nanobody tagged with a hinge, 3xFLAG and C-terminal His tags (assay: other fluorescence titration). Settings: not given.
With B1 the EC50 was 10.7 µM.
B2 gave an EC50 of 11.5 µM.
Binder B3 has an EC50 of 3 µM.
B4 gave an EC50 of 11.1 µM.

Molecular target: T1, His6 peptide (antigen of the …)
Experiment: other fluorescence titration; Q-body de-quenching in solution with His6 peptide at varied concentrations, PBST, plate reader; EC50 from a four-parameter logistic fit
Settings: both partners purified
B1 showed an EC50 of 8.8 ± 1.3 µM.
B5 showed an EC50 of 13.8 ± 5.1 µM.
For B2, the EC50 was 89.5 ± 25.4 µM.
In the case of B3, the EC50 is reported as 6.1 ± 1.4 µM.
Binder B6 has an EC50 of 132 ± 34 µM.
Binder B4 has an EC50 of 54.7 ± 9.5 µM.

Molecular target: T2, biotinylated His6 peptide …
Experiment: BLI; biotinylated His6 peptide (100 nM) loaded on streptavidin biosensors; unlabeled protein or Q-body in two-fold dilutions in Kinetic buffer (phosphate, 150 mM NaCl, 0.002% Tween20, 0.1% BSA, pH 7.4); global fit, 1:1 model; Octet K2
Settings: not given
B7 gave a Kd of 0.00288 µM, a koff of 0.000835 s⁻¹ and a kon of 290000 M⁻¹ s⁻¹.
B2 was tested, and the Kd was 0.00172 µM, the koff was 0.000455 s⁻¹ and the kon was 264000 M⁻¹ s⁻¹.
Binder B8 has a Kd of 0.00017 µM, a koff of 2.27e-05 s⁻¹ and a kon of 132000 M⁻¹ s⁻¹.

Same assay, conditions: both partners purified
B9 gave a Kd of 0.00076 µM, a koff of 0.000105 s⁻¹ and a kon of 139000 M⁻¹ s⁻¹.
B10 showed a Kd of 0.00362 µM, a koff of 9.93e-05 s⁻¹ and a kon of 27400 M⁻¹ s⁻¹.
For B11, the Kd was 0.0268 µM, the koff was 0.00303 s⁻¹ and the kon was 113000 M⁻¹ s⁻¹.
B6 was tested, and the Kd was 0.00319 µM, the koff was 0.000672 s⁻¹ and the kon was 210000 M⁻¹ s⁻¹.
In the case of B4, the Kd is reported as 0.00131 µM, the koff is reported as 0.000512 s⁻¹ and the kon is reported as 392000 M⁻¹ s⁻¹.
B12 gave a Kd of 0.00503 µM, a koff of 0.000425 s⁻¹ and a kon of 84500 M⁻¹ s⁻¹.

Same assay, conditions: record 2
B2 was tested, and the Kd was 0.00319 µM.
